We go through 26 variants from the supplement of paper PMC7125110.

To fix the notation:
B1: glmS ribozyme (parent)
chain: AUAAAAGCGCCAGAACUACAGAAAUGUAGUUGACGAGGAGGAGGUUUAUCGAAUUUUCGGCGGAUGCCUCCAAA

± gives the standard error. This sample holds only a part of the variants without activity.

Common to all, as to conditions: with glucosamine-6-phosphate
The variants in series [1] derive from B1. Description: self-cleavage kobs at 40 uM GlcN6P; higher = faster cleavage; RNA array. A digest of the protocol:
(§1)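 Over ~14 h at 37 °C, tiles were imaged as glucosamine-6-phosphate (40 μM to 10 mM) in HEPES/KCl/Mg(OAc)2 buffer flowed across sequenced MiSeq chips. The chips carried barcoded ribozyme variants transcribed in situ by E. coli RNA polymerase and tracked with a hybridised Cy3 probe. After normalisation to baseline and to non-cleaving reference variants, one- or two-exponential decay fits of per-tile medians gave kobs. kcat and KM followed from weighted Michaelis–Menten fits across concentrations.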

The variants in series [2] derive from B1. Description: self-cleavage kobs at 160 uM GlcN6P; higher = faster cleavage; RNA array. Summed up:
as §1

Series [3] covers variants of B1. Description: self-cleavage kobs at 10000 uM GlcN6P; higher = faster cleavage; RNA array. A digest of the protocol:
as §1

Series [4] covers variants of B1. Description: self-cleavage kobs at 640 uM GlcN6P; higher = faster cleavage; RNA array. Summed up: as §1
The variants in series [5] derive from B1. Description: self-cleavage kobs at 2500 uM GlcN6P; higher = faster cleavage; RNA array. Summed up:
as §1

Regarding U49G G59C, in the series with glucosamine-6-phosphate [1], the “self-cleavage kobs at 40 uM GlcN6P” value is below 1e-05 s⁻¹. Besides, in the series with glucosamine-6-phosphate [2], the “self-cleavage kobs at 160 uM GlcN6P” value was below 1e-05 s⁻¹. Besides, in the series with glucosamine-6-phosphate [3], the “self-cleavage kobs at 10000 uM GlcN6P” value was below 1e-05 s⁻¹.
Consider G7A G41C, for which the “self-cleavage kobs at 40 uM GlcN6P” value with glucosamine-6-phosphate [1] is below 1e-05 s⁻¹. Further, the “self-cleavage kobs at 160 uM GlcN6P” value in the series with glucosamine-6-phosphate [2] is below 1e-05 s⁻¹. In addition, the “self-cleavage kobs at 640 uM GlcN6P” value in the series with glucosamine-6-phosphate [4] was below 1e-05 s⁻¹. Moreover, in the series with glucosamine-6-phosphate [5], the “self-cleavage kobs at 2500 uM GlcN6P” value is below 1e-05 s⁻¹.
Consider U30G G40U A42C C58A, for which, in the series with glucosamine-6-phosphate [2], the “self-cleavage kobs at 160 uM GlcN6P” value was below 1e-05 s⁻¹. Further, the “self-cleavage kobs at 640 uM GlcN6P” value with glucosamine-6-phosphate [4] is below 1e-05 s⁻¹. Moreover, in the series with glucosamine-6-phosphate [5], the “self-cleavage kobs at 2500 uM GlcN6P” value was below 1e-05 s⁻¹.
On to A36C A39U U57C, for which the “self-cleavage kobs at 160 uM GlcN6P” value with glucosamine-6-phosphate [2] is below 1e-05 s⁻¹.
Regarding U30C A42C, in the series with glucosamine-6-phosphate [1], the “self-cleavage kobs at 40 uM GlcN6P” value was below 1e-05 s⁻¹. Further, the “self-cleavage kobs at 160 uM GlcN6P” value with glucosamine-6-phosphate [2] was below 1e-05 s⁻¹. Also, the “self-cleavage kobs at 2500 uM GlcN6P” value with glucosamine-6-phosphate [5] is below 1e-05 s⁻¹. Further, the “self-cleavage kobs at 10000 uM GlcN6P” value with glucosamine-6-phosphate [3] is below 1e-05 s⁻¹.
As to U45A G62U, the “self-cleavage kobs at 40 uM GlcN6P” value with glucosamine-6-phosphate [1] was below 1e-05 s⁻¹. In addition, the “self-cleavage kobs at 160 uM GlcN6P” value with glucosamine-6-phosphate [2] was below 1e-05 s⁻¹. In addition, the “self-cleavage kobs at 640 uM GlcN6P” value with glucosamine-6-phosphate [4] is below 1e-05 s⁻¹. Further, the “self-cleavage kobs at 2500 uM GlcN6P” value with glucosamine-6-phosphate [5] was below 1e-05 s⁻¹.
As for A14U G29U G35A, the “self-cleavage kobs at 40 uM GlcN6P” value in the series with glucosamine-6-phosphate [1] is below 1e-05 s⁻¹.
In the case of C34U U49G, in the series with glucosamine-6-phosphate [2], the “self-cleavage kobs at 160 uM GlcN6P” value is below 1e-05 s⁻¹. The “self-cleavage kobs at 2500 uM GlcN6P” value with glucosamine-6-phosphate [5] was below 1e-05 s⁻¹. The “self-cleavage kobs at 10000 uM GlcN6P” value with glucosamine-6-phosphate [3] is below 1e-05 s⁻¹.
For G9U G35C G66U, in the series with glucosamine-6-phosphate [1], the “self-cleavage kobs at 40 uM GlcN6P” value is below 1e-05 s⁻¹. In addition, the “self-cleavage kobs at 10000 uM GlcN6P” value with glucosamine-6-phosphate [3] was below 1e-05 s⁻¹.
Regarding G7A A33U A52U C70U, the “self-cleavage kobs at 40 uM GlcN6P” value in the series with glucosamine-6-phosphate [1] is below 1e-05 s⁻¹. In the series with glucosamine-6-phosphate [5], the “self-cleavage kobs at 2500 uM GlcN6P” value was below 1e-05 s⁻¹.
In the case of G29U C50G, in the series with glucosamine-6-phosphate [1], the “self-cleavage kobs at 40 uM GlcN6P” value was 5.51e-05 ± 1.5e-05 s⁻¹. For the same variant, the “self-cleavage kobs at 160 uM GlcN6P” value with glucosamine-6-phosphate [2] was 0.000992 ± 0.0003 s⁻¹. Also, the “self-cleavage kobs at 640 uM GlcN6P” value with glucosamine-6-phosphate [4] was 5.49e-05 ± 1.4e-05 s⁻¹.
For G9U A36C G38C, the “self-cleavage kobs at 40 uM GlcN6P” value with glucosamine-6-phosphate [1] was below 1e-05 s⁻¹. The “self-cleavage kobs at 10000 uM GlcN6P” value in the series with glucosamine-6-phosphate [3] is below 1e-05 s⁻¹.
Turning to G9C A36U, the “self-cleavage kobs at 40 uM GlcN6P” value with glucosamine-6-phosphate [1] is below 1e-05 s⁻¹. In addition, the “self-cleavage kobs at 640 uM GlcN6P” value with glucosamine-6-phosphate [4] was below 1e-05 s⁻¹. Moreover, the “self-cleavage kobs at 2500 uM GlcN6P” value in the series with glucosamine-6-phosphate [5] was below 1e-05 s⁻¹.
As to A14G G29C C61U C71U, the “self-cleavage kobs at 160 uM GlcN6P” value in the series with glucosamine-6-phosphate [2] is below 1e-05 s⁻¹. In addition, in the series with glucosamine-6-phosphate [4], the “self-cleavage kobs at 640 uM GlcN6P” value is below 1e-05 s⁻¹. Moreover, the “self-cleavage kobs at 10000 uM GlcN6P” value with glucosamine-6-phosphate [3] is below 1e-05 s⁻¹.
For G37A A52C C61A, the “self-cleavage kobs at 40 uM GlcN6P” value with glucosamine-6-phosphate [1] is below 1e-05 s⁻¹. The “self-cleavage kobs at 10000 uM GlcN6P” value in the series with glucosamine-6-phosphate [3] was below 1e-05 s⁻¹.
Regarding G40U G41U U46A U47C G51U, the “self-cleavage kobs at 40 uM GlcN6P” value with glucosamine-6-phosphate [1] is below 1e-05 s⁻¹.
On to U30G G35C A36C A52U, for which the “self-cleavage kobs at 160 uM GlcN6P” value with glucosamine-6-phosphate [2] is below 1e-05 s⁻¹. The “self-cleavage kobs at 2500 uM GlcN6P” value in the series with glucosamine-6-phosphate [5] was below 1e-05 s⁻¹.
C58U U65G: the “self-cleavage kobs at 40 uM GlcN6P” value with glucosamine-6-phosphate [1] is below 1e-05 s⁻¹. Moreover, in the series with glucosamine-6-phosphate [2], the “self-cleavage kobs at 160 uM GlcN6P” value is below 1e-05 s⁻¹. In addition, in the series with glucosamine-6-phosphate [4], the “self-cleavage kobs at 640 uM GlcN6P” value is below 1e-05 s⁻¹.
As for G9A A36G C67U, the “self-cleavage kobs at 160 uM GlcN6P” value in the series with glucosamine-6-phosphate [2] was below 1e-05 s⁻¹.
On to U54C C70A, for which, in the series with glucosamine-6-phosphate [1], the “self-cleavage kobs at 40 uM GlcN6P” value worked out at 3e-05 ± 1.2e-05 s⁻¹. Also, the “self-cleavage kobs at 160 uM GlcN6P” value with glucosamine-6-phosphate [2] was 5.86e-05 ± 2.8e-05 s⁻¹. In addition, the “self-cleavage kobs at 640 uM GlcN6P” value with glucosamine-6-phosphate [4] was 0.000124 ± 2.4e-05 s⁻¹. Moreover, in the series with glucosamine-6-phosphate [5], the “self-cleavage kobs at 2500 uM GlcN6P” value came to 0.000512 ± 0.00011 s⁻¹. Also, the “self-cleavage kobs at 10000 uM GlcN6P” value in the series with glucosamine-6-phosphate [3] stood at 0.000206 ± 2.9e-05 s⁻¹.
Take G13U G40U A48C A53G U57G: the “self-cleavage kobs at 40 uM GlcN6P” value in the series with glucosamine-6-phosphate [1] was below 1e-05 s⁻¹.
Consider A6U G43A G59A G60U, for which, in the series with glucosamine-6-phosphate [1], the “self-cleavage kobs at 40 uM GlcN6P” value is below 1e-05 s⁻¹.
With U56A G60U, in the series with glucosamine-6-phosphate [2], the “self-cleavage kobs at 160 uM GlcN6P” value is below 1e-05 s⁻¹.
Take C10A A33C G40C C70U: the “self-cleavage kobs at 160 uM GlcN6P” value with glucosamine-6-phosphate [2] is below 1e-05 s⁻¹. In the series with glucosamine-6-phosphate [4], the “self-cleavage kobs at 640 uM GlcN6P” value is below 1e-05 s⁻¹.
Take A6U U49G: the “self-cleavage kobs at 40 uM GlcN6P” value in the series with glucosamine-6-phosphate [1] was below 1e-05 s⁻¹. In addition, the “self-cleavage kobs at 160 uM GlcN6P” value in the series with glucosamine-6-phosphate [2] is below 1e-05 s⁻¹. Besides, in the series with glucosamine-6-phosphate [4], the “self-cleavage kobs at 640 uM GlcN6P” value is below 1e-05 s⁻¹. In addition, in the series with glucosamine-6-phosphate [5], the “self-cleavage kobs at 2500 uM GlcN6P” value is below 1e-05 s⁻¹.
For G13C U65G, in the series with glucosamine-6-phosphate [1], the “self-cleavage kobs at 40 uM GlcN6P” value is below 1e-05 s⁻¹. Besides, the “self-cleavage kobs at 160 uM GlcN6P” value in the series with glucosamine-6-phosphate [2] is below 1e-05 s⁻¹. Besides, the “self-cleavage kobs at 640 uM GlcN6P” value with glucosamine-6-phosphate [4] is below 1e-05 s⁻¹. Moreover, the “self-cleavage kobs at 2500 uM GlcN6P” value in the series with glucosamine-6-phosphate [5] was below 1e-05 s⁻¹.
